Assay results: patent US20250236673A1 (Ablynx, published 2025)

T1: recombinant human CEACAM5 (human, UniProt P06731 35-685, limits assumed)
T1 construct: Immobilised by amine coupling on a CM5 chip
T1 sequence (looked up): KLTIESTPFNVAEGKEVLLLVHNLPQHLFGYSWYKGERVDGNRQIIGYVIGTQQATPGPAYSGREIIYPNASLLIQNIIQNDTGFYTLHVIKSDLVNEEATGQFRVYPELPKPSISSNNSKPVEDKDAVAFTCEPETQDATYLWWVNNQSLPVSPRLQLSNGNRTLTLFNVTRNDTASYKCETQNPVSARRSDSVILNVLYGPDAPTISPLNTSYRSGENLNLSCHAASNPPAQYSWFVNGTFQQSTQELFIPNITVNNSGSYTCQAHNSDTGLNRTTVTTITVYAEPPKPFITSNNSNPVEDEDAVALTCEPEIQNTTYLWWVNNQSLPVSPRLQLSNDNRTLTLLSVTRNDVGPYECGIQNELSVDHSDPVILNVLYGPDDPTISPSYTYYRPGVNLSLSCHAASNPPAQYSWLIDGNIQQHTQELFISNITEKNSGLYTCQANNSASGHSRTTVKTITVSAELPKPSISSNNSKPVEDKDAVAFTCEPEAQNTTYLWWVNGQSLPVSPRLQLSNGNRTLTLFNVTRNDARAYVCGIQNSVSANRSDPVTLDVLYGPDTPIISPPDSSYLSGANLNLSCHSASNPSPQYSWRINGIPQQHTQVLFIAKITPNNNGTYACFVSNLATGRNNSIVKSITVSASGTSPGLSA


What was measured:
human serum albumin [1] = target: T2, human serum albumin (human, UniProt P02768 25-609); assay: SPR Biacore 8K+, HSA amine-coupled on C1 chip, ISVD analyte, 1:1 fit
T2 construct: Immobilised by amine coupling on a C1 chip; also called HSA

human serum albumin [2] = target: T2, human serum albumin; assay: SPR on HSA (Example 2; method not restated, as Example 1)
[3] = target: T1, recombinant human CEACAM5; assay: SPR Biacore 8K+, CEACAM5 amine-coupled on CM5, ISVD analyte, 1:1 fit

T2 sequence (P02768 25-609 limits assumed): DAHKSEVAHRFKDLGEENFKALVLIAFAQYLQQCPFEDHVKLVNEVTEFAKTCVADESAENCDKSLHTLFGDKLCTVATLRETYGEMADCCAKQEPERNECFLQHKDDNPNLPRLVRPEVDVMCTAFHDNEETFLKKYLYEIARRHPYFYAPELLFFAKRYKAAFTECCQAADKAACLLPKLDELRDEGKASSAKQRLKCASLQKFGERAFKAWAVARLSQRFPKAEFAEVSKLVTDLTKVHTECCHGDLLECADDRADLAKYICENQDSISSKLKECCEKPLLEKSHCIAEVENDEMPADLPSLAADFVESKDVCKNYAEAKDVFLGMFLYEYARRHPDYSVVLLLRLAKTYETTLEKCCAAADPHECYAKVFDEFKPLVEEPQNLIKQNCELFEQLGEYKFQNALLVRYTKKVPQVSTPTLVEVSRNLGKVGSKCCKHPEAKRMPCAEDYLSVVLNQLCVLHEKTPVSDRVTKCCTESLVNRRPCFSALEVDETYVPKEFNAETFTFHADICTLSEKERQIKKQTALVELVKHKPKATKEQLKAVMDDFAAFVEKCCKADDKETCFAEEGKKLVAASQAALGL

Binder	Kd (human serum albumin [1])	koff (human serum albumin [1])	kon (human serum albumin [1])	Kd [3]	koff [3]	kon [3]	other results
T028501811 (VHH, K64Q vs precursor T028501805; also called HSA006A06(K64Q, K83R)) VHH: EVQLVESGGGVVQPGGSLRLSCAASGFTFRSFGMSWVRQAPGKGPEWVSSISGSGSDTLYADSVQGRFTISRDNSKNTLYLQMNSLRPEDTALYYCTIGGSLSRSSQGTLVTVSS	1.76 nM	0.00103 s⁻¹	587000 M⁻¹ s⁻¹				
T028501810 (VHH, K64E vs precursor T028501805; also called HSA006A06(K64E,K83R)) VHH: EVQLVESGGGVVQPGGSLRLSCAASGFTFRSFGMSWVRQAPGKGPEWVSSISGSGSDTLYADSVEGRFTISRDNSKNTLYLQMNSLRPEDTALYYCTIGGSLSRSSQGTLVTVSS	1.93 nM	0.00124 s⁻¹	644000 M⁻¹ s⁻¹				
T039400042 (VHH, Single lysine at 73; also called HIS6-ENLYFQS-5GS-HSA006A06(K43R, K64R, N73K, K75R, K83R)) VHH: EVQLVESGGGVVQPGGSLRLSCAASGFTFRSFGMSWVRQAPGRGPEWVSSISGSGSDTLYADSVRGRFTISRDKSRNTLYLQMNSLRPEDTALYYCTIGGSLSRSSQGTLVTVSS							Kd (human serum albumin [2]): 89.6 nM; koff (human serum albumin [2]): 0.0178 s⁻¹; kon (human serum albumin [2]): 198000 M⁻¹ s⁻¹
T039400039 (VHH, Single lysine at 75; also called HIS6-ENLYFQS-5GS-HSA006A06(K43R, K64R, K83R)) VHH: EVQLVESGGGVVQPGGSLRLSCAASGFTFRSFGMSWVRQAPGRGPEWVSSISGSGSDTLYADSVRGRFTISRDNSKNTLYLQMNSLRPEDTALYYCTIGGSLSRSSQGTLVTVSS							Kd (human serum albumin [2]): 7.51 nM; koff (human serum albumin [2]): 0.00226 s⁻¹; kon (human serum albumin [2]): 301000 M⁻¹ s⁻¹
T028501813 (VHH, K75E vs precursor T028501805; also called HSA006A06(K75E, K83R)) VHH: EVQLVESGGGVVQPGGSLRLSCAASGFTFRSFGMSWVRQAPGKGPEWVSSISGSGSDTLYADSVKGRFTISRDNSENTLYLQMNSLRPEDTALYYCTIGGSLSRSSQGTLVTVSS	1.98 nM	0.00102 s⁻¹	514000 M⁻¹ s⁻¹				
T039400044 (VHH, also called HIS6-ENLYFQS-5GS-HSA006A06(K43R, K64R, K75R, K83R, Q105K)) VHH: EVQLVESGGGVVQPGGSLRLSCAASGFTFRSFGMSWVRQAPGRGPEWVSSISGSGSDTLYADSVRGRFTISRDNSRNTLYLQMNSLRPEDTALYYCTIGGSLSRSSKGTLVTVSS							Kd (human serum albumin [2]): 6.42 nM; koff (human serum albumin [2]): 0.00229 s⁻¹; kon (human serum albumin [2]): 357000 M⁻¹ s⁻¹
T028501815 (VHH, K75R vs precursor T028501805; also called HSA006A06(K75R, K83R)) VHH: EVQLVESGGGVVQPGGSLRLSCAASGFTFRSFGMSWVRQAPGKGPEWVSSISGSGSDTLYADSVKGRFTISRDNSRNTLYLQMNSLRPEDTALYYCTIGGSLSRSSQGTLVTVSS	1.48 nM	0.00127 s⁻¹	860000 M⁻¹ s⁻¹				
T028501814 (VHH, K75Q vs precursor T028501805; also called HSA006A06(K75Q, K83R)) VHH: EVQLVESGGGVVQPGGSLRLSCAASGFTFRSFGMSWVRQAPGKGPEWVSSISGSGSDTLYADSVKGRFTISRDNSQNTLYLQMNSLRPEDTALYYCTIGGSLSRSSQGTLVTVSS	1.4 nM	0.00114 s⁻¹	814000 M⁻¹ s⁻¹				
T028501828 (VHH, K75E vs precursor T028501817; 38 used; also called A0315024B02(M43K, Q64K, K75E, K83R)) VHH: EVQLVESGGGVVQPGGSLRLSCAASGHTFSEYALGWFRQAPGKEREFVAAINWGGGWTYYADSVKGRFTISRDNAENTLYLQMNSLRPEDTALYYCAASSDYAGGNPTGYPYWGQGTLVTVSS				7.51 nM	0.00203 s⁻¹	270000 M⁻¹ s⁻¹	
T028501830 (VHH, K75R vs precursor T028501817; also called A0315024B02(M43K, Q64K, K75R, K83R)) VHH: EVQLVESGGGVVQPGGSLRLSCAASGHTFSEYALGWFRQAPGKEREFVAAINWGGGWTYYADSVKGRFTISRDNARNTLYLQMNSLRPEDTALYYCAASSDYAGGNPTGYPYWGQGTLVTVSS				6.01 nM	0.00207 s⁻¹	344000 M⁻¹ s⁻¹	
T028501829 (VHH, K75Q vs precursor T028501817; also called A0315024B02(M43K, Q64K, K75Q, K83R)) VHH: EVQLVESGGGVVQPGGSLRLSCAASGHTFSEYALGWFRQAPGKEREFVAAINWGGGWTYYADSVKGRFTISRDNAQNTLYLQMNSLRPEDTALYYCAASSDYAGGNPTGYPYWGQGTLVTVSS				7.14 nM	0.00208 s⁻¹	291000 M⁻¹ s⁻¹	

Now from value to binder, other results behind:

Kd (human serum albumin [1])	koff (human serum albumin [1])	kon (human serum albumin [1])	Kd [3]	koff [3]	kon [3]	Binder	other results
			7.8 nM	0.00209 s⁻¹	268000 M⁻¹ s⁻¹	T028501831 (VHH, K75H vs precursor T028501817; also called A0315024B02(M43K, Q64K, K75H, K83R)) VHH: EVQLVESGGGVVQPGGSLRLSCAASGHTFSEYALGWFRQAPGKEREFVAAINWGGGWTYYADSVKGRFTISRDNAHNTLYLQMNSLRPEDTALYYCAASSDYAGGNPTGYPYWGQGTLVTVSS	
			6.34 nM	0.00204 s⁻¹	322000 M⁻¹ s⁻¹	T028501832 (VHH, K75A vs precursor T028501817; also called A0315024B02(M43K, Q64K,K75A, K83R)) VHH: EVQLVESGGGVVQPGGSLRLSCAASGHTFSEYALGWFRQAPGKEREFVAAINWGGGWTYYADSVKGRFTISRDNAANTLYLQMNSLRPEDTALYYCAASSDYAGGNPTGYPYWGQGTLVTVSS	
